Laboratory results: patent publication US20230174622A1

Target: eEGFRt (modified EGFRt on edited T cells; variant not specified) (human)
Assay: cell-based or functional assay

Which depletion of EGFRt-expressing lymphocytes after 3 days in vitro (flow cytometry), 5 nM and 1 nM does the source give for “αEGFR-SAP immunotoxin (biotinylated Cetuximab antibody combined with streptavidin-SAP conjugate, 1:1 molar ratio)” here?
Its depletion of EGFRt-expressing lymphocytes after 3 days in vitro (flow cytometry), 5 nM and 1 nM is 50%.

What about the reduction of eEGFRt+ cells after in vitro treatment (flow cytometry) of the same substance?
Its reduction of eEGFRt+ cells after in vitro treatment (flow cytometry) is 1.8 fold.
